The results in this text go back to patent publication US11994512B2, “Single-cell genomic methods to generate ex vivo cell systems that recapitulate in vivo biology with improved fidelity” (Massachusetts Institute of Technology, priority 2018, dated 2024).

For the assay, the system named is intracellular proteome of ENR+CD and ENR organoids. As to the kind of experiment: LC-MS/MS TMT proteomics of ENR+CD versus ENR organoids. The class given is cell-based, C57BL/6 mice. As to conditions: for Average logFC / M1-1 Log2 Median Normalized / M1-2 Log2 Median Normalized / M2-1 Log2 Median Normalized / M2-2 Log2 Median Normalized: protein abundance, ENR+CD versus ENR organoids; for Average logFC: aggregate of the four sample pairs; for M1-1 Log2 Median Normalized: replicate M1-1; for M1-1 Log2 Median Normalized / M1-2 Log2 Median Normalized / M2-1 Log2 Median Normalized / M2-2 Log2 Median Normalized: log2 ratio; for M1-2 Log2 Median Normalized: replicate M1-2; for M2-1 Log2 Median Normalized: replicate M2-1; for M2-2 Log2 Median Normalized: replicate M2-2; for change: up = enriched in ENR+CD, down = enriched in ENR, FDR<0.05 and log fold change cut-off.

B1: Q33DR2 (protein, UniProt Q33DR2 1-409, looked up)
chain: MAMRWSCWRRGCSWRPTAVGSPRRERPGCVEPLGTRAASDTRAQIPYFSLMKILMSASPTMHSISQFHQRTPAMCSCRQTQSGEKYSDPFKLGWRDLKGLYEDIRKELHISTRELKDMSEYYFDGKGKAFRPIIVVLMARACNIHHNNAREMQASQRSIALVAEMIHTATLVHDDVIDDASSRRGKHTVNKIWGEKKAVLAGDLILSAASVALARIGNTAVVSMLAQVIEDLVRGEFLQLGSKENENERFAHYLEKTFKKTASLIANSCKAVSVLGCPDPVVHEIAYQYGKNVGIAFQLIDDVLDFTSCSDQMGKPTSADLKLGIATGPVLFACQQFPEMNAMIMRRFSLPGDVDRARQYVLQSDGVQQTTYLAQQYCHKAVREIRKLRPSTERDALIQLSESVLTRDK
modifications: full-length
As for B1, the “Average logFC” value is −1.389, the “M1-1 Log2 Median Normalized” value is reported as −1.379, the “M1-2 Log2 Median Normalized” value was −1.779 and the “M2-1 Log2 Median Normalized” value is listed as −1.2185. Moreover, the “M2-2 Log2 Median Normalized” value is −1.389 and the change result was “down”.

B2: Q3U0B3 (protein, UniProt Q3U0B3 1-260, looked up)
chain: MTRAGMERWRDRLALVTGASGGIGAAVARALVQQGLKVVGCARTVGNIEELAAECKSAGYPGTLIPYRCDLSNEEDILSMFSAVRSQHSGVDICINNAGMARPDTLLSGSTSGWKDMFNVNVLALSICTREAYQSMKERNIDDGHIININSMCGHRVPPQSVIHFYSATKYAVTALTEGLRQELLEAQTHIRATCISPGLVETQFAFKLHDKDPGEAAATYEHIKCLRPEDVAEAVIYVLSTPPHVQVGDIQMRPTEQVT
modifications: full-length
For B2, the “Average logFC” value is −1.3, the “M1-1 Log2 Median Normalized” value is reported as −1.054, the “M1-2 Log2 Median Normalized” value was −1.691 and the “M2-1 Log2 Median Normalized” value is −1.5305. Further, the “M2-2 Log2 Median Normalized” value is given as −0.923 and the change result is “down”.

B3: Q3UA16 (protein, UniProt Q3UA16 1-226, looked up)
chain: MGEDELALLNQSINEFGDKFRNRLDDNHSQVLGLRDAFKDSMKAFSEKMSLKLKEEERMTEMILEYKNQLCKQNKLIQEKKENVLKMIAEVKGKEQESEELTAKIQELKEEYARKRETISTANKANEERLKGLQKSADLYRDYLGLEIRKIHGNKLQFIFTSIDPKNPESPYMFSMSINEAKEYEVYDSSPHLECLAEFQEKVRKTNNFSAFLANIRKAFIAKVHN
modifications: full-length
Regarding B3, the “Average logFC” value is −1.826, the “M1-1 Log2 Median Normalized” value is on record as −1.924, the “M1-2 Log2 Median Normalized” value is recorded as −0.747 and the “M2-1 Log2 Median Normalized” value is −1.8235. Moreover, the “M2-2 Log2 Median Normalized” value is given as −2.598 and the change entry is “down”.

B4: Q3UHD3 (protein, UniProt Q3UHD3 1-1353, looked up)
chain: MSVPLAPKKSCFGQLRDHREGAKNNNESILRTGDTNANQIMLEVSSSCDEAKSRDLDDELGNSNLSRPQYHSHFQKEPLHLQGFGKGSQAGSTSQRESQASLTVHRQLSEEHAVKRGALQAPQCVQGPSLSSWRNAVGQASPEASAKKDAEIPRHIPKDKLAKTLDNEELKRASSCSAAAGSVPPTDLQPVQLDTLGPQDHVPARGEGPQRTPASHSPGKGFSPGEGTSEGNSVYLPKPSTSEAKGSSPSDTKMEGPHGLDVYNERITHAELTPSSASASKENPGLRHPEVCLGQGTGKSKVELKSVQPRNEEGLTSAQAQGPGCHEERSMSPVERQELLEKAYREATSQGNSSHRQLGVRRGSSLEEMTGVSAGVEGSQQATPTLSAAPAGEAGTRLTGKMSAGVGRMARETASGQTAPDVGQAAPVRRDPTESVPSEVSGEERRLGSGNSGSTKLLASGPSAGGSRTDTSGLLSPRGSNLEARKGKEMVAENRNLLENAAQTDNTPAGVDSAFSTPAPLLHPETTVNSSHHPTPPGSSSQELGVFSGDTGSPSVASPPTDGGQVLNTSPKVPDRTTCSSGIPKPPTHPKDTPSSQEAREKLETEKMEERAEAKPILMPKPKHVRPKIITYIRRNPQALSQGDASLVPVGLPYAPPTCGMPLPQEEKAASRDLQPSANMYEKLKPDLQKPRVFPSGLMVSGIKPPAHHFSQMSEKFLQEVADHPGKEEFCSPPYTHYEVPPTFYRSAMLLKPQLGLGAMSRLPSTKSRILIASQRSSASAIHPPGSLTTAASFYGSDPSDLKKASNSNAAKASLPKSGLRPPGYSRLPAAKLAAFGFVRSSSISAVPSSQSLDSVQPEQSRPVTRSTFGNEEQAPLKQALPSKDTPKGAGRAAPASSSNATTPRRSLLPAPKSTSTPAGAKKELQKDPEAKKPAVSSPKRTASAATKPHSPGYPKQRTSAPRNEFPPKPDLQAREAERQLAQRLRDRCEWQARQLGLARRELKKAIQGFDALAVSTKHFFGKSERALAKEKELSIELANIRDEVAFNTAKCEKLQKEKETLERRFEEELRRLGWQQQAEVQELQERLQQQFQAESARLQAEHQDQLLRMRCQHQEQVEDITASHEAALLEMENNHTVAITILQDDHDHKVQELMSTHEFEKKELEENFEKLRLTLQDQVDTLTFQSQSLRDRARRFEEALRKTTEEQLEIALAPYQHLEEDMQSLKQVLEMKNQQIHLQEKKIIELEKLVEKNIILEERIQVLQQQNEDLKARIDQNTVVTRQLSEENANLQEYVEKETQEKKRLSRTNEELLWKLQTGDPTSPIKLSPTSPVYRGSSSGPSSPARVSTTPR
modifications: full-length
On to B4, for which the “Average logFC” value came to 1.47, the “M1-1 Log2 Median Normalized” value stood at 1.347, the “M1-2 Log2 Median Normalized” value turned out to be 0.087 and the “M2-1 Log2 Median Normalized” value is recorded as 1.7985. In addition, the “M2-2 Log2 Median Normalized” value was found to be 2.649 and the change entry is given as “up”.

B5: Q3U9N9 (protein, UniProt Q3U9N9 1-512, looked up)
chain: MVPSQEEPAAERETNEAQPPGPAPSDDAPLPGPGPSDVSDVAAEKVEVELTRSAGSEPPVPPEGGWGWLVMLAAMWCNGSVFGIQNAYGVLFVSMLDTFKAKDDDNMAFKTAWVGSLSMGMIFFCCPIVSVFTDMFGCRRTAVVGAAVGFIGLMSSSFVSSIEPLYLTYGIIFACGCSFAYQPSLVILGHYFKKRLGLVNGIVTAGSSVFTILLPLLLGNLISSVKLFNTLRILCIFMFVLFLAGFTYRPLVPSTKEKESGGSRSSFFSRRKLSPPKKVFNFALFKETTYAVWAAGIPLALFGYFVPYVHLMNHVKERFQDVNNKEVLFMCIGITSGVGRLLFGRIADYLPGVKKVYLQVLSFFFIGLMSMMIPLCSAFGALIAVCLAMGLFDGCFISIMAPIAFELVGPQDASQAIGFLLGFMSIPMTVGPPIAGLLHDKLGTYDVAFYLAGIPPFVGGVVLCLIPWIHSKKQRKISKNAGGEKMEKMLENQSSLLSGSSGIFKKDSASII
modifications: full-length
Take B5: the “Average logFC” value is listed as −1.314, the “M1-1 Log2 Median Normalized” value is listed as −1.309, the “M1-2 Log2 Median Normalized” value was −0.055 and the “M2-1 Log2 Median Normalized” value was −1.4695. Moreover, the “M2-2 Log2 Median Normalized” value is on record as −2.424 and the change result is on record as “down”.

B6: Q3UGF1 (protein, UniProt Q3UGF1 1-1341, looked up)
chain: MKRVFSLLEKSWLGAPIQFAWQKSSGNYLAVTGADYIVKIFDRHGQKRSEISLPGNCVTMDWDKDGDILAVIAEKSSCIYLWDANTNKTSQLDNGMRDQMSFLLWSKIGSFLAVGTIKGNLLIYNHQTSRKIPVLGKHTKKITCGCWNSENLLALGGEDKMITVSNQEGDTIRQTPVKSEPSDIKFSMSKTDERISSAENTISAVVGKKMLFLFHLNEPDNPVDLEFQQAYGNIVCYSWYGDGYIMIGFSRGTFLAISTHFPEVGQEIFKARDHKDNLTSVALSQTLNKAATCGDNCIKIHDLTELRDMYAIINLDDENKGLGTLSWTDDGQLLALSTQRGSLHVFLTKLPILGDACHTRIAYLTSLLEVTVANLIEGEPPITVSVDVEPTFVAVGLYHLAVGMNNRAWFYVLGENVVKKLKDVEYLGTVASICLHSDYAAALFEGKIQLHLIENEMLDAQEERETRLFPAVDDKCRILCHALTSDFLIYGTDTGIIHYFFIEDWQFVNDYRHPVGVKKLFPDPNGTRLVFIDEKSDGFVYCPVNDATYEIPDFSPTIKGVLWENWPMDKGVFIAYDDDKVYTYAFHKDTIQGSKVILAGSTKLPFSHKPLLLYNGELTCQTQSGKINSIYLSTHSFLGSMKDTEPTDLRQMLTQTLLLKRFSDAWDICKMLNDRTSWSELAKACLHHMEVEFAIRVSRTMGDVGTVMSLEQIKGIEDYNLLAGHLAMFTNDFNLAQDLYLASNCPVAALEMRRDLQHWDSALQLAKRLAPDQIPFISKEYAIQLEFTGDYVNALAHYEKGITGDNKEHDEVCLAGVAQMSIRMGDIRRGANQALKHPSRVLKRDCGAILENMKQFSEAAQLYEKGQYYDRAASVYIRCKNWAKVGELLPHVSSPKIHLQYAKAKEADGRYKEAVVAYENAKQWNSVIRIYLDHLNNPEKAVSIVRETQSLDGAKMVARFFLQLGDYGSAIQFLVLSKCNNEAFTLAQQHNKMEIYADIIGAEDTTNEDYQSIALYFEGEKRHFQAGKFFLLCGQYSRALKHFLKCPSSEDNVAIEMAIETVGQAKDELLTNQLIDHLMGESDGMPKDAKYLFRLYMALKQYREAARTAIIIAREEQSAGNYRNAHDVLFSMYAELKAQKIKIPSEMATNLMILHSYILVKIHVKSGDHMKGARMLIRVANNISKFPSHIVPILTSTVIECHRAGLKNSAFSFAAMLMRPEYRNKIDAKYKKKIEAMVRRPDTSETEEATTPCPFCQFLLPECELLCPGCKNNIPYCIATGRHMLKDDWTMCPHCGFPALYSEFKILLNSESTCPMCSERLNSSQLKKITDCSQYLRTEME
modifications: full-length
In the case of B6, the “Average logFC” value is recorded as −1.153, the “M1-1 Log2 Median Normalized” value is −0.199, the “M1-2 Log2 Median Normalized” value is listed as −0.895 and the “M2-1 Log2 Median Normalized” value is −1.3115. Moreover, the “M2-2 Log2 Median Normalized” value is reported as −2.206 and the change result is “down”.
